Experimental data published in the NTF2 design screens of Basanta et al. (2020).

Assay: protease stability score; higher = more stable; yeast display proteolysis, trypsin and chymotrypsin;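 note: log10 excess protease needed over predicted unfolded state with 0 meaning unfolded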

**Q.** Which protease stability score does the source give for “DEKREKDVAENFNTILENNDPDNLRKQAPPEAHAVIGDTRYRGMETFVTIMKKMWDEVDHFTVDDYQVQNGRVTIQAHVQVNGRQVTLHLEMIIDNGHITHIRMDPRQYRQFEG” here?
**A.** Its protease stability score is -0.434.

**Q.** With “DDQLFRVLQELWKALQEGDHKHAIDQAPEDARFHVGEKNYHGMEDAAKHLAEFYKQIRVRIEIKRYEINGDSLNVHVVVQMNNNGKPERRRNVILAKLHNGRMLEMQVHDRE” as the sequence, how does the protease stability score read?
**A.** Its protease stability score is 0.064.

**Q.** With “DEEIVKLVEEQARAEKTNDDKRLNELFDKDAKVDVGDKSYHGTEELHKLVHRTMHRMRFDLRTYRIDHEGDRAVMNYNLVFDINGRPDHYHVIFRAHMHNGRIKHQSVSVDPEQKKRFDS” as the sequence, how does the protease stability score read?
**A.** The protease stability score was -0.023.

**Q.** With “DQEDLRRIAEQVNRAFEKNDHDLMRRLADKDVKFHVGEKELTGRDNLARFLQEFRRRADHITVKSFDASNGRVNADIEIDVNGQKIKLHMQAEVHNGHIKHVRFHYTDEQQLRDFLS” as the sequence, how does the protease stability score read?
**A.** The protease stability score was 1.24.

**Q.** With “DDEAMKQFRHWVEAYTTGDSQRLRELVDPNATVRVGDKTYTGMEDIAKNIHQQVRRQRFHVELKRVNNQPNRIEVDLDVTFNVNGKPIRIRLRMQAEMHNGRFKYIEVRFDPDEQRKLES” as the sequence, how does the protease stability score read?
**A.** The protease stability score was 0.861.

**Q.** With “DQKVNEFFKHVVKVEENGDTDKYRDNFDKDARAVYGDKRVTGNDELADTMRRTRHDMKYDVRSMDVQVRNGRVTVDVKVDVRVDGKPHSLKETIEMEVDNGKVKEVRVDFDPDQRRKVER” as the sequence, how does the protease stability score read?
**A.** The protease stability score was -0.188.

**Q.** For “DEDKVERLKHMWKVVEEGDEDKLREQFDKDASVTVGDKVLTGRENLARHWKRIRDELRFSMTMEKVEVHNGVVDIRVTATEDNNGRPQHKVADVRVDMHNGRIKVLEVDETK”, which protease stability score is on record?
**A.** The protease stability score was 0.154.

**Q.** For “DEKKKAEEQHKKLEHALREGDPDEAKKMMDPNVRAQVGETKFHGREQMAKFWMTFNKRADHVEFELRDLHIENGRIRIHAVVRADVNGQTVRINIRIILTKHGDQFVAVRIEQK”, which protease stability score is on record?
**A.** The protease stability score was 0.499.

**Q.** For “DETAQKVANQFFEALKNGDPDQVRRLLDKNATVRIGEWQVHGREQASKDVHQNKQHAEYDWRIRSVKVTGNKVDIDAEVTYQHNGEPSRRQMVVNVVVTNGKIQDIHVRDEQ”, which protease stability score is on record?
**A.** Its protease stability score is 1.43.

**Q.** Which protease stability score does the source give for “DEEDQKTVEEFLHNLEKNNEDQIKRLLDKDVKFIIGDKELHGMEDAVDRLRRHIEEMKVRIESVSNTVSGDKVVVDFTFIEDQNGKPDRKRMKIEFRFHNGKAKEIRIETRQ” here?
**A.** The protease stability score was 1.38.

**Q.** With “DEHKYRKLAEQINKALEDGDSREMMRLMDKDVKARYGDKTVHGRDDARKLFEDRQDHVDKIQVDDYRVDGDDITVVMTYNHNGRTTVQVLVFRLRNGRIKSASVHSQ” as the sequence, how does the protease stability score read?
**A.** The protease stability score was 0.998.

**Q.** For “DEEDVKRFAREFFTALQKNDEKKVTDLVDENARAEVGEREYHGREDVATMLARFNKRVDHAHLKRLEVTGDQVIMVFEVVHDGRKTNVSIDMRVHNGRLLEFRMETS”, which protease stability score is on record?
**A.** Its protease stability score is 1.41.

**Q.** Which protease stability score does the source give for “DKQDLDKLRELWEDELNGDHRSLREQVDPNAKVEIGDKEIHGRDDFAKDAKRRKEEIRVEMRVKSLSASGDTIDAKVHLDFKVNGKPIRLTVHMHVKVENGKFVDLNVRIDERQVRKIRK” here?
**A.** Its protease stability score is 0.089.

**Q.** Which protease stability score does the source give for “DDRDKVKSLWKQMLTILRTGDHKRWNKLVDKDVKYNIGDKSIHGKEEAEKLVKKIKDKVDTVSQTIVDVQNHNGRIHLRLRMVNNFNGNHNTYEVNAQFEKKNGRVKMQNQTDN” here?
**A.** Its protease stability score is 0.149.

**Q.** For “DHHHARELLTRVIRALITGDEKKVADQIDPNAEFQYGDKTFHGRDQVRRFVKEWKKHVDHVELKTYDARGDKAKAIFVVDHNGHKKQVVLQLKVENGRVKSIRITDG”, which protease stability score is on record?
**A.** Its protease stability score is 1.74.

**Q.** With “DEEDVTRLAEEMVRAFESGNPEDWVKMLDENARVRIGDKVYHGREQVQTFANSWVSRADHARVESFSVHGDNIHIKAVMDIDGVRVQVIIVARAHNGRVQELRVEWRNEDQKKHVDK” as the sequence, how does the protease stability score read?
**A.** Its protease stability score is 1.

**Q.** Which protease stability score does the source give for “DSRAANLFSHAWKQVETGNNHNFRKLLDPNARRKVGDQTIDGREEMTEDNKRKRKEMHRTIETMSFEDHGDKAVFYMQYVVHHNGEPREIRNRVIIKVRGDRIKEVEVRKDG” here?
**A.** The protease stability score was 0.006.

**Q.** Which protease stability score does the source give for “DEENHRRATELLRAWKTGDEEELKRQMPPDVHIRVGDQEVHGREQAVKHLAQRRREASFRFKIKEYELQGEKIRIVARAEVHHNGEPQRYVVRLVILYRNGQAEEINQQEDG” here?
**A.** Its protease stability score is 1.25.

**Q.** For “DEENLRVVVHLMKAVETGDPTKARRNLDKDVHFNVGNRRIHGREQFQKELDDEKKDISINVKDYRVRDKNGKAHFTVRFVLEVNGRPMEMKITMQAEAHNGRIKHVQQQVSEEDEKRINK”, which protease stability score is on record?
**A.** Its protease stability score is -0.094.

**Q.** Which protease stability score does the source give for “DDRELEDVQRVVETGDPDKLNDLADKDARMQVGDHKVRGSDQVRSLMDKLKKRIDHYDVKSITIRNGRLDATVVFVINGEEIEVRIVLRVHNGRLKEMSIHATSERVQTILKKAMS” here?
**A.** The protease stability score was 0.803.

**Q.** With “DEKDVHLARKYYQNFRDGDPDKLKRMADKDAKMSVGDKHLHGMEKIATDLQREHEEMHIDRKIDDVKVNGDKAIVHLKVNINVDGKPTSDSVTVIFKFENGKITTLEYRFDPDKQRKINK” as the sequence, how does the protease stability score read?
**A.** Its protease stability score is 0.294.

**Q.** With “DEHSIAEQLAHQFIRAQESGDPDQVDRLADENVRVQIGDKQVKGRDVVRRTMQTWRDRSDHITARLRDVSVRNGQINLLIELDYRQNGQTQHHTLVIVAEVHNGQVRMVQIEIR” as the sequence, how does the protease stability score read?
**A.** The protease stability score was -0.221.

**Q.** For “DDEDQRDQVRRLSKQMQTGDPNKVRQLLDPNAEVHIGDTTVHGREEVMRSQDKLRKRIDHFEMQDMKVDGESVVAHAVFRVDGKDITLEVRARYTNGRVKKMSFNPEAITRIRS”, which protease stability score is on record?
**A.** Its protease stability score is 0.127.

**Q.** With “DEDRLREQATNFIEAMQTGDTKRVDEQIDKDAQLVVGEKKYEGREQISTFVKEMHHQFDHVRLQRVTVSGNKVLLDVVMDFNGKDLRINIVIHMNNGKISQVQVDYTNPEDAKTARG” as the sequence, how does the protease stability score read?
**A.** Its protease stability score is 0.587.

**Q.** With “DEEDAHEQVHRIVKALETGDPDQVVNQADENVRIHVGEKTVHGQEKVREFVEEYNEQVDDVNVRHVSLDGNKATVTIDIDVNGNKRRVHFRFQFDNGRVQTIRVDTS” as the sequence, how does the protease stability score read?
**A.** The protease stability score was 0.719.
